What is called Km is the substrate concentration at which the rate is half of its maximum.

This note sets out measurements from patent publication US7217548B2, “N-acetylglucosaminlytransferase and polynucleotide encoding the same” (National Institute of Advanced Industrial Science and …, priority 2000, dated 2007).

Substrate in the series: CC(=O)N[C@@H](C)C(=O)N[C@@H](C)C(=O)N1CCC[C@H]1C(=O)N[C@H](C(=O)N1CCC[C@H]1C(=O)N[C@H](C(=O)N[C@@H](C)C(=O)N[C@@H](C)C(=O)N1CCC[C@H]1C(N)=O)C(C)C)[C@@H](C)O[C@H]1O[C@H](CO)[C@@H](O)[C@H](O)[C@@H]1O
As to the kind of experiment: Substrate specificity and kinetic parameters of solubilized human OMGnT enzyme (S). The note with it: other: 125 mM MOPS pH7.3, 0.2 mM UDP-GlcNAc, 7.5 mM MnCl2, 37° C., 2 hours, pH 7.3. The class given is biochemical. Here is the method: […] […] The reaction mixture was then filtered with a filter Ultrafree-MC (Millipore) having a pore size of 0.22 μm to remove solids, and analyzed by Wakopak 5C18-200 column (4.6×250 mm, Wako Pure Chemical Industries, Ltd.). The separation was carried out using concentration gradient with Solution A and Solution B at a flow rate of 1.0 ml/min. […] Peptide detection was carried out at 214 nm, and the radioactivity of each fraction was assayed using a liquid scintillation counter.
The activity of GnT-1 was assayed with a method by Yoshida et al. [Yoshida, S., Suzuki, M., Yamano, S., Takeuchi, M., Ikenaga, H., Kioka, N., Sakai, H., and Komano, T., Glycobiology, (1999), 9, 53–58] as described below. A 20 μl reaction solution was prepared by adding an enzyme source thereto so as to have a final concentration of 100 mM MES (pH 6.0), 20 mM MnCl2, 5 μM Manα1–6(Manα1–3)Manα1–6(Manα1–3)Manβ1–4GlcNAcβ1–4GlcNAc-PA(M5GN2-PA; Takara Shuzo, PA-Sugar Chain 017), 1 mM UDP-GlcNAc, 100 mM GlcNAc, 5 mM AMP, 1% Triton X-100, and 0.2% BSA. The reaction solution was incubated at 37° C. for 1 hour, and the reaction was terminated in boiling water. Thereafter, the reaction solution was analyzed by a reverse phase HPLC (Cosmosil 5C18-AR column) available from Nacalai Tesque. […]

B1: His-Xpress-sOMGnT(S) (Homo sapiens; M623V) (protein)
chain: SSAEEAECHWADTELNRRRRRFCSKVEGYGSVCSCKDPTPIEFSPDPLPDNKVLNVPVAVIAGNRPNYLYRMLRSLLSAQGVSPQMITVFIDGYYEEPMDVVALFGLRGIQHTPISIKNARVSQHYKASLTATFNLFPEAKFAVVLEEDLDIAVDFFSFLSQSIHLLEEDDSLYCISAWNDQGYEHTAEDPALLYRVETMPGLGWVLRRSLYKEELEPKWPTPEKLWDWDMWMRMPEQRRGRECIIPDVSRSYHFGIVGLNMNGYFHEAYFKKHKFNTVPGVQLRNVDSLKKEAYEVEVHRLLSEAEVLDHSKNPCEDSFLPDTEGHTYVAFIRMEKDDDFTTWTQLAKCLHIWDLDVRGNHRGLWRLFRKKNHFLVVGVPASPYSVKKPPSVTPIFLEPPPKEEGAPGAPEQT
notes: Ig kappa chain secretory signal (N); made in house; host or cells: HEK293T (transient, secreted into serum-free medium)
As to B1, the Michaelis constant (Km) was 1360 µM.
